# Measured values published in US5914109.
# Where two headings read alike, the source gives them in different places.
# Legend:
# [1] = target: gp41 of HIVMN (virus) (HIV-1 strain MN)
# [2] = target: recombinant gp120 protein of HIVSF2 (produced in CHO cells) (HIV-1 isolate SF-2) (UniProt P03378); experiment: Friguet method; reference: the 20-mer SF-2 peptide
# [3] = target: 20-mer V3 peptide of HIVMN (American Bio-Technologies) (HIV-1 strain MN); experiment: Friguet ELISA method, V3 MN peptide
# [4] = target: 20-mer V3 peptide of HIVSF2 (HIV-1 isolate SF-2); experiment: competition ELISA in solution at equilibrium (Friguet method)
# [5] = target: 20-mer V3 peptide of HIVMN (American Bio-Technologies) (HIV-1 strain MN); experiment: as above
# [6] = target: gp120 of HIVMN (HIV-1 strain MN) (UniProt P05877)
# [7] = target: hexapeptide KRKRIH (pin 5) (HIV-1 strain MN); experiment: pin ELISA, hexapeptide on plastic pin
# [8] = target: hexapeptide AFYTTK (pin 16) (HIV-1 strain MN); experiment: pin ELISA, hexapeptide on plastic pin
# [9] = target: hexapeptide HIGPGR (pin 10) (HIV-1 strain MN); experiment: pin ELISA, hexapeptide on plastic pin
# [10] = target: hexapeptide IHIGPG (pin 9) (HIV-1 strain MN); experiment: pin ELISA, hexapeptide on plastic pin
# [11] = target: hexapeptide KRIHIG (pin 7) (HIV-1 strain MN); experiment: pin ELISA, hexapeptide on plastic pin
# [12] = target: hexapeptide IGPGRA (pin 11) (HIV-1 strain MN); experiment: pin ELISA, hexapeptide on plastic pin
# [13] = target: hexapeptide GPGRAF (pin 12) (HIV-1 strain MN); experiment: pin ELISA, hexapeptide on plastic pin
# [14] = target: hexapeptide RKRIHI (pin 6) (HIV-1 strain MN); experiment: pin ELISA, hexapeptide on plastic pin
# [15] = target: hexapeptide RIHIGP (pin 8) (HIV-1 strain MN); experiment: pin ELISA, hexapeptide on plastic pin
# [16] = target: hexapeptide YNKRKR (pin 3) (HIV-1 strain MN); experiment: pin ELISA, hexapeptide on plastic pin
# [17] = target: hexapeptide RAFYTT (pin 15) (HIV-1 strain MN); experiment: pin ELISA, hexapeptide on plastic pin
# [18] = target: hexapeptide TKNIIG (pin 20) (HIV-1 strain MN); experiment: pin ELISA, hexapeptide on plastic pin
# [19] = target: hexapeptide FYTTKN (pin 17) (HIV-1 strain MN); experiment: pin ELISA, hexapeptide on plastic pin
# [20] = target: hexapeptide PGRAFY (pin 13) (HIV-1 strain MN); experiment: pin ELISA, hexapeptide on plastic pin
# [21] = target: hexapeptide GRAFYT (pin 14) (HIV-1 strain MN); experiment: pin ELISA, hexapeptide on plastic pin
# [22] = target: hexapeptide NKRKRI (pin 4) (HIV-1 strain MN); experiment: pin ELISA, hexapeptide on plastic pin
# [23] = target: hexapeptide TTKNII (pin 19) (HIV-1 strain MN); experiment: pin ELISA, hexapeptide on plastic pin
# [24] = target: hexapeptide YTTKNI (pin 18) (HIV-1 strain MN); experiment: pin ELISA, hexapeptide on plastic pin
# [25] = target: recombinant gp120 protein of HIVSF2 (produced in CHO cells) (HIV-1 isolate SF-2) (UniProt P03378); experiment: competition ELISA in solution at equilibrium (Friguet method)
# [26] = target: 20-mer V3 peptide of HIVSF2 (HIV-1 isolate SF-2); experiment: as above; remark: listed apart in the source
# [27] = target: gp120 of HIVMN (HIV-1 strain MN) (UniProt P05877); remark: listed apart in the source
Substance,Kd [3] [nM],Kd [4] [nM],Kd [5] [nM],"50% neutralization, CEM-SS syncytium-forming assay, IgG concentration [6] [µg/mL]","90% neutralization, CEM-SS syncytium-forming assay, IgG concentration [6] [µg/mL]",ELISA reactivity (absorbance units) (absorbance units) [7],ELISA reactivity (absorbance units) (absorbance units) [8],ELISA reactivity (absorbance units) (absorbance units) [9],ELISA reactivity (absorbance units) (absorbance units) [10],ELISA reactivity (absorbance units) (absorbance units) [11],ELISA reactivity (absorbance units) (absorbance units) [12],ELISA reactivity (absorbance units) (absorbance units) [13],ELISA reactivity (absorbance units) (absorbance units) [14],ELISA reactivity (absorbance units) (absorbance units) [15],ELISA reactivity (absorbance units) (absorbance units) [16],ELISA reactivity (absorbance units) (absorbance units) [17],ELISA reactivity (absorbance units) (absorbance units) [18],ELISA reactivity (absorbance units) (absorbance units) [19],ELISA reactivity (absorbance units) (absorbance units) [20],ELISA reactivity (absorbance units) (absorbance units) [21],other results
human mAb 50-69 (antibody),,,,,,,,,,,,,,,,,,,,,"neutralizing antibody titer (50%), MT-2 plaque assay, 1 hr, no complement (titer (1:x dilution)) [1]: 3; neutralizing antibody titer (50%), MT-2 plaque assay, 18 hr with human complement (titer (1:x dilution)) [1]: 3"
human mAb 257-D (antibody),230,220,230,0.01,0.88,0.259,0.233,0.156,0.13,1.59,0.163,0.208,1.78,0.276,0.256,0.333,0.164,0.273,0.456,0.272,"Difference (Kd of the SF-2 peptide against SF-2 recombinant) [2]: 15 fold; ELISA reactivity (absorbance units) (absorbance units) [22]: 0.288; ELISA reactivity (absorbance units) (absorbance units) [23]: 0.219; ELISA reactivity (absorbance units) (absorbance units) [24]: 0.259; Kd [25]: 41.6 nM; Kd [26]: 630 nM; neutralizing antibody titer (50%), MT-2 plaque assay, 1 hr, no complement [27]: 3 ng/mL; neutralizing antibody titer (50%), MT-2 plaque assay, 18 hr with human complement [27]: 0.3 ng/mL"
human mAb 268-D (antibody),590,2300,590,0.1,1,0.239,0.222,1.01,0.132,0.179,0.164,0.132,0.252,0.135,0.243,0.35,0.141,0.274,0.346,0.288,"ELISA reactivity (absorbance units) (absorbance units) [22]: 0.283; ELISA reactivity (absorbance units) (absorbance units) [23]: 0.212; ELISA reactivity (absorbance units) (absorbance units) [24]: 0.259; neutralizing antibody titer (50%), MT-2 plaque assay, 1 hr, no complement [27]: 23 ng/mL; neutralizing antibody titer (50%), MT-2 plaque assay, 18 hr with human complement [27]: 1.1 ng/mL"
